Assay results as given in US11306156.

Assays:
[1] = target: tissue factor (TF) antigen (UniProt P13726); test: SPR, His-captured Fab, TF as analyte; against wild-type D3H44 Fab
[2] = target: tissue factor (TF) antigen (UniProt P13726); test: SPR, His-captured Fab, TF as analyte, 1:1 fit
[3] = target: tissue factor (TF) antigen (UniProt P13726); test: SPR (ProteOn XPR36), Fab captured on anti-penta-His surface, TF as analyte, 1:1 fit
[4] = target: tissue factor (TF) antigen (UniProt P13726); test: SPR (ProteOn XPR36), Fab captured on anti-penta-His surface, TF as analyte; reference is the wild-type D3H44 Fab
[5] = target: D3H44 light chain Q124R_Q160K_T178R (Kabat) with N-terminal HA or FLAG tag; test: LCCA, SPR read-out of light-chain tags; light-chain DNA 1:3 normalized to 1:1; competing light chain m17
[6] = target: D3H44 light chain T178R (Kabat) with N-terminal HA or FLAG tag; test: as above
[7] = target: D3H44 light chain Q124E_Q160E_T180E (Kabat) with N-terminal HA or FLAG tag; test: LCCA, SPR read-out of light-chain tags; light-chain DNA 1:3 normalized to 1:1; competing light chain m20
[8] = target: D3H44 light chain Q124E_Q160E_T180E (Kabat) with N-terminal HA or FLAG tag; test: LCCA, SPR read-out of light-chain tags; light-chain DNA 1:3 normalized to 1:1; competing light chain m18
[9] = target: tissue factor (TF) antigen (UniProt P13726); test: SPR, Fab captured on anti-penta-His surface, TF as analyte, 1:1 fit
[10] = target: tissue factor (TF) antigen (UniProt P13726); test: SPR, Fab captured on anti-penta-His surface, TF as analyte, 1:1 fit; against wild-type D3H44 Fab
[11] = target: tissue factor (TF) antigen (UniProt P13726); test: SPR (ProteOn XPR36), His-tagged Fab captured on anti-penta His, TF as analyte; against wild-type D3H44 Fab
[12] = target: tissue factor (TF) antigen (UniProt P13726); test: SPR (ProteOn XPR36), His-tagged Fab captured on anti-penta His, TF as analyte, 1:1 fit
[13] = target: tissue factor (TF) antigen (UniProt P13726); test: SPR (ProteOn XPR36), Fab captured on anti-penta-His surface, TF as analyte; reference wild-type D3H44 Fab
[14] = target: tissue factor (TF) antigen (UniProt P13726); test: SPR (ProteOn XPR36): His-tagged Fab captured on anti-penta-His surface, TF as analyte, 1:1 fit; batch C (+)

Q: “D3H44 Fab heterodimer H1L1 of LCCA Set # 9732 and 9733 (H1 L143K; L1 Q124E_V133D_S176L)” was tested. Which Change in median values of KD compared to wild type (-(log(KD design)-log(KD wt))) [1] did it give?
A: -0.25 log

Q: What about the Kd [2] of the same substance?
A: 0.28 nM

Q: What does the source list for “D3H44 Fab heterodimer H1L1 of LCCA set 9226 (H1 L124E_L143D_K145T; L1 Q124K_V133G_S176R_T178R)”?
A: Kd [3]: 0.16 nM; Change in median values of KD of h1l1 Fab heterodimer compared to wild type (-(log(KD design)-log(KD wt))) [4]: -0.02

Q: For “D3H44 Fab heavy chain Q179K (Kabat) with C-terminal ABD2-His6 tag”, which H2L2:H2L1 normalized median ratio [5] is on record?
A: 13%

Q: What about the H2L2:H2L1 normalized median ratio [6] of the same substance?
A: 22%

Q: And the H2L2:H2L1 normalized median ratio [7]?
A: 87%

Q: And the H2L2:H2L1 normalized median ratio [8]?
A: 78%

Q: Which results are given for “D3H44 H1L1 Fab heterodimer of LCCA Set # 9559 (H1 L124W_L143E_K145T_Q179E; L1 Q124K_V133A_S176T_T178R)”?
A: Kd [9]: 0.27 nM; change in median KD compared to wild type, -(log(KD design)-log(KD wt)) [10]: -0.24

Q: What does the source list for “D3H44 Fab heterodimer, H1 L124R_S186R / L1 Q124E_V133G_S176D_T178D_T180E (H1L1 Fab of LCCA Set # 9513)”?
A: Change in median values of KD of h1|1 Fab heterodimer compared to wild type (-(log(KD design)-log(KD wt))) [11]: -0.21; Kd [12]: 0.26 nM

Q: With “D3H44 Fab heterodimer H1 L124A_S186K / L1 Q124E_V133W_T180E” as the substance, how does the Kd [3] read?
A: 0.15 nM

Q: What about the Change in median values of KD of h1l1 Fab heterodimer compared to wild type (-(log(KD design)-log(KD wt))) [13] of the same substance?
A: 0.02

Q: For “D3H44 H1L1 Fab heterodimer of LCCA sets 9911, 9909 and 9907 (H1 S188L; L1 WT)”, which Change in median values of KD of h1|1 Fab heterodimer compared to wild type (-(log(KD design)-log(KD wt))) [14] is on record?
A: 0.27 log units

Q: And the Kd [14]?
A: 0.09 nM

Q: What does the source list for “D3H44 H1L1 Fab heterodimer of LCCA Set # 10549 (H1 L45P_K145T_Q179E; L1 P44F_S131K)”?
A: Kd [9]: 0.35 nM; change in median KD compared to wild type, -(log(KD design)-log(KD wt)) [10]: -0.35

Q: With “D3H44 Fab heterodimer, H1 H172R_S186R / L1 Q38E_Q124E_Q160E_T180E (H1L1 Fab of LCCA Set # 9075)” as the substance, how does the Change in median values of KD of h1|1 Fab heterodimer compared to wild type (-(log(KD design)-log(KD wt))) [11] read?
A: -0.03

Q: What about the Kd [12] of the same substance?
A: 0.17 nM

Q: With “D3H44 Fab heterodimer H1 L124A / L1 V133W” as the substance, how does the Kd [3] read?
A: 0.13 nM

Q: And the Change in median values of KD of h1l1 Fab heterodimer compared to wild type (-(log(KD design)-log(KD wt))) [13]?
A: 0.07

Q: For “D3H44 Fab heterodimer H1L1 of LCCA sets 9523 and 9524 (H1 L124R_S186R; L1 V133G_S176D_T178D)”, which Kd [3] is on record?
A: 0.2 nM

Q: What about the Change in median values of KD of h1l1 Fab heterodimer compared to wild type (-(log(KD design)-log(KD wt))) [4] of the same substance?
A: -0.1

Q: “D3H44 H1L1 Fab heterodimer of LCCA set 9741 (H1 L143R; L1 Q124E_V133E_Q160F)” was tested. Which Change in median values of KD of h1|1 Fab heterodimer compared to wild type (-(log(KD design)-log(KD wt))) [14] did it give?
A: 0.34 log units

Q: What about the Kd [14] of the same substance?
A: 0.07 nM

Q: “D3H44 Fab heterodimer, H1 D146G_H172R_Q179K / L1 Q38E_Q124E_Q160E_T180E (H1L1 Fab of LCCA Set # 9064)” was tested. Which Change in median values of KD of h1|1 Fab heterodimer compared to wild type (-(log(KD design)-log(KD wt))) [11] did it give?
A: -0.05

Q: And the Kd [12]?
A: 0.17 nM

Q: With “D3H44 H1L1 Fab heterodimer of LCCA Set # 9098 (H1 L124A_Q179K; L1 Q124E_V133W_S176T_T178E_T180E)” as the substance, how does the Kd [9] read?
A: 0.17 nM

Q: What about the change in median KD compared to wild type, -(log(KD design)-log(KD wt)) [10] of the same substance?
A: -0.03

Q: With “D3H44 Fab heterodimer H1 L124R_H172T / L1 V133G_N137K_S174R_S176D” as the substance, how does the Kd [3] read?
A: 0.23 nM

Q: And the Change in median values of KD of h1l1 Fab heterodimer compared to wild type (-(log(KD design)-log(KD wt))) [13]?
A: -0.16

Q: Which Kd [3] does the source give for “D3H44 Fab heterodimer H1 L124W_L143E_K145T_Q179E / L1 Q124R_V133A_S176T_T178R” here?
A: 0.21 nM

Q: What about the Change in median values of KD of h1l1 Fab heterodimer compared to wild type (-(log(KD design)-log(KD wt))) [13] of the same substance?
A: -0.13

Q: Which Kd [3] does the source give for “D3H44 Fab heterodimer H1 L45P_L143E_K145T_H172R / L1 P44F_Q124R_Q160K_T178R” here?
A: 0.29 nM

Q: What about the Change in median values of KD of h1l1 Fab heterodimer compared to wild type (-(log(KD design)-log(KD wt))) [13] of the same substance?
A: -0.27

Q: For “D3H44 Fab heterodimer H1L1 of LCCA Set # 9099 (H1 L124A_Q179K; L1 Q124E_V133W_S176T_T178L_T180E)”, which Change in median values of KD compared to wild type (-(log(KD design)-log(KD wt))) [1] is on record?
A: -0.09 log

Q: What about the Kd [2] of the same substance?
A: 0.19 nM

Q: With “D3H44 Fab heavy chain L143D_K145T_Q179E (Kabat) with C-terminal ABD2-His6 tag” as the substance, how does the H1L1:H1L2 normalized median ratio [6] read?
A: 89%

Q: And the H1L1:H1L2 normalized median scalar value ln(r1/f1) [6]?
A: 2.1

Q: And the H1L1:H1L2 normalized median ratio [8]?
A: 11%
